Data on 13 molecules can be found in US20090291885A1.

Assay in all cases: cell-based or functional assay
Assay [1] has as its target human Kv1.3 voltage-gated potassium channel (human) (UniProt P22001).
The target in assay [2] is human Kv1.3 channel (human) (UniProt P22001).
Assay [3] concerns the target human Kv1.1 channel (human) (UniProt Q09470).
The target of assay [4] is human Kv1.3 channel (human) (UniProt P22001). This is another data set of the same source.

Like-named read-outs stand apart in the source and are kept apart here. Ends that are not written are not given here.

Sequence of human Kv1.3 channel (human) (P22001 whole entry): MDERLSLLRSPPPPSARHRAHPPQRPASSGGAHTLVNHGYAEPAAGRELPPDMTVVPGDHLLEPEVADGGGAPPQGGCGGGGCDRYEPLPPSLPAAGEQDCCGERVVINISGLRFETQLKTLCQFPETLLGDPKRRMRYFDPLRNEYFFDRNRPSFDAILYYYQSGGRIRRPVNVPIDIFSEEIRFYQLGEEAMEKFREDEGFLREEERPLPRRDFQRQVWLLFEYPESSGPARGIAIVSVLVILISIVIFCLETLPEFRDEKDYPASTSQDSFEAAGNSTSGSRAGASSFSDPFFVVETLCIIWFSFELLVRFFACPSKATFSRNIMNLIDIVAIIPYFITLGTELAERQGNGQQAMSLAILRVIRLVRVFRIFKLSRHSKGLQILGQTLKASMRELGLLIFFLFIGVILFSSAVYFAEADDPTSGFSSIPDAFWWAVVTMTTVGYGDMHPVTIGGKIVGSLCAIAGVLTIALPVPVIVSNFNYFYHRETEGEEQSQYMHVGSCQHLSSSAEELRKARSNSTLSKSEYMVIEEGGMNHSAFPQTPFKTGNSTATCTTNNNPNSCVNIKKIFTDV
Sequence of human Kv1.3 voltage-gated potassium channel (human) (P22001 whole entry): as above
Sequence of human Kv1.1 channel (human) (Q09470 whole entry): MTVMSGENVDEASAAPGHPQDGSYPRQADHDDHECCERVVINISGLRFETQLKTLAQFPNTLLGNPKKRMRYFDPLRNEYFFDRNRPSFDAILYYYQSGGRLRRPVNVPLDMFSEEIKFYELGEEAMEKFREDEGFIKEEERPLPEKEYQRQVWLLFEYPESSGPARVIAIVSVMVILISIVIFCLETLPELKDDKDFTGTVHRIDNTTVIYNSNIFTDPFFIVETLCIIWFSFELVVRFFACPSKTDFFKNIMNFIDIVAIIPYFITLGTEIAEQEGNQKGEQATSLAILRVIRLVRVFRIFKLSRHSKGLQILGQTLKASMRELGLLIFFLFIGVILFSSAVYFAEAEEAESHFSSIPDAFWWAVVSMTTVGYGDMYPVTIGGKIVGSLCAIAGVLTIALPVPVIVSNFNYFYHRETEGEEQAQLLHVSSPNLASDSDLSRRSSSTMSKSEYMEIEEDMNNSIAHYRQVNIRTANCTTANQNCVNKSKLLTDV

In assay [1], 20k PEG-ShK (peptide) came in with a WB/IFNg (IC50, nM) of 0.065 nM and a WB/IL-2 (IC50, nM) of 0.046 nM.

For the molecule E. coli-derived Fc-L-OSK1 (Fc fusion), the Kv1.3 IC50 by WCVC in assay [2] worked out at 3.2 nM.

“E. coli-derived Fc-L-ShK[1-35] (Fc fusion)” registered a Kv1.3 IC50 by WCVC in assay [2] of 1.4 nM.

With “E. coli-derived Fc-L-ShK[2-35] (Fc fusion)”, in assay [2], the Kv1.3 IC50 by IWQ was 2.8 nM and the Kv1.3 IC50 by WCVC was 1.3 nM.

As to “E. coli-derived ShK[2-35]-L-Fc (Fc fusion)”, in assay [2], the Kv1.3 IC50 by IWQ was found to be 4.9 nM.

In turn, “E. coli-derived Shk[1-35]-L-Fc (Fc fusion)” showed a Kv1.3 IC50 by IWQ in assay [2] of 2.4 nM.

For the molecule Fc-L10-OSK1 (Fc fusion), the fold loss of potency in Kv1.3 current block against synthetic OSK1 in assay [2] amounted to 5 fold.

Fc-L25-ShK[2-35] (Fc fusion) yielded an IC50, whole cell patch clamp electrophysiology on HEK293/Kv1.3 cells in assay [2] of 150 pM.

In assay [2], GGGGS-Osk1 (peptide) gave a WB/IFNg IC50 of 2.2 nM and a WB/IL-2 IC50 of 1.36 nM.

Take OSK1 (wild-type) (peptide): in assay [2], the Kv1.3 IC50, whole cell patch clamp came out at 0.039 nM and the Kv1.3 Selectivity (= Kv1.1/Kv.3 IC50) was 5 fold. In assay [3], this molecule gave a Kv1.1 IC50, whole cell patch clamp of 0.202 nM.

In the case of PEG-OSK1 (peptide), in assay [2], the peak IC50, whole cell patch clamp on HEK293 cells stably expressing human Kv1.3 came out at 1.28 nM.

Synthetic OSK1 (peptide): in assay [2], the hKv1.1/hKv1.3 (selectivity ratio of the IC50s) came out at 4 fold and the hKv1.3: IC50 [pM] was 39 pM. Besides, the hKv1.1: IC50 [pM] in assay [3] is 160 pM.

Molecule RSCIDTIPKSRCTAFQCKHSMKYRLSFCRKTCGTC (not fully specified; ends and bridges not checked) [20K PEG-ShK[1-35]] returned a peak IC50, whole cell patch clamp on HEK293 cells stably expressing human Kv1.3 in assay [4] of 0.169 nM.
